{
  "source": "paper PMC2755859",
  "about": "(The Journal of Biological Chemistry, 2009)",
  "binders": {"B1": {"name": "GST-PRMT5reg (domain or fragment)", "chain": "MAAMAVGGAGGSRVSSGRDLNCVPEIADTLGAVAKQGFDFLCMPVFHPRFKREFIQEPAKNRPGPQTRSDLLLSGRDWNTLIVGKLSPWIRPDSKVEKIRRNSEAAMLQELNFGAYLGLPAFLLPLNQEDNTNLARVLTNHIHTGHHSSMFWMRVPLVAPEDLRDDIIENAPTTHTEEYSGEEKTWMWWHNFRTLCDYSKRIAVALEIGADLPSNHVIDRWLGEPIKAAILPTSIFLTNKKGFPVLSKMHQRLIFRLLKLEVQFIITGTNHHSEKEFCSYLQYLEYLSQN"}},
  "molecular_target": "pICln (UniProt P54105 1-237)",
  "assay": "pull-down",
  "data": [
    {"binder": "B1", "values": [
      {"measurement": "binding result", "value": "binds"}
    ]}
  ]
}
